Experimental data from patent US20210095028A1 (NANJING LEGEND BIOTECH, published 2021).
Substitutions are numbered along the chain they refer to.

T1: human TIGIT over-expressed on cells (human, UniProt Q495A1 22-244)
T1 sequence: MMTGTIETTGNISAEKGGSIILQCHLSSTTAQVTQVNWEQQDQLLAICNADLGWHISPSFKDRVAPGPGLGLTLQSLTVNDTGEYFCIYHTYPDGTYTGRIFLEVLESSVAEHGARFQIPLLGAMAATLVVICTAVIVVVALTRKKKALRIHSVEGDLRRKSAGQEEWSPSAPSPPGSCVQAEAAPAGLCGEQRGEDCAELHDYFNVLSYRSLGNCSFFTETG

T2: Human TIGIT protein with HIS tag (human, UniProt Q495A1 22-141)
T2 construct: A soluble analyte is probably only the extracellular part; also called human TIGIT recombinant protein; not shown: HIS tag
T2 sequence: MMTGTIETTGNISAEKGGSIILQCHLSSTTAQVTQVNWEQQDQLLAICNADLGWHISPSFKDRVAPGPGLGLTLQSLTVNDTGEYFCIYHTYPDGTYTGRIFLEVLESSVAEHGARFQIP

B1: 100C4E7D11VH1_VL1 (antibody, V domains shown)
VH: EVQLVESGGGLVKPGGSLRLSCAASGFTFSFYTMSWVRQAPGKGLEWVSTISSGGGSTYYSDSVKGRFTISRDNAKNSLYLQMNSLRAEDTAVYYCARSLPVDYWGQGTTVTVSS
VL: EIVLTQSPGTLSLSPGERATLSCTASSSVSSTYLHWYQQKPGQAPRLLIYSTSNLASGIPDRFSGSGSGTDFTLTISRLEPEDFAVYYCHLYHHSPYTFGGGTKVEIK
notes: Humanized antibody, variable domains fused with the constant region of human IgG1; also called 100C4VH1_VL1
B2: 64G1E9B4VH1_VL1.M1 (antibody, human IgG1, V domains shown)
VH: EVQLVQSGAEVKKPGSSVKVSCKASGYTFTEHVIHWVRQAPGQGLEWMGGFNPNHDGTIYNQIFRGRVTITADKSTSTAYMELSSLRSEDTAVYYCARAAKLLFAMDYWGQGTTVTVSS
VL: DIQMTQSPSSLSASVGDRVTITCRASQHVSNAVVWYQQKPGKAPKLLIYSPSYRFTGVPSRFSGSGSGTDFTLTISSLQPEDFATYYCQQHYSTPWTFGGGTKVEIK
notes: Humanized antibody, variable domains fused with the constant region of human IgG1; also called 64G1VH1_VL1.M1
B3: 64G1E9B4VH1.M1_VL1.M1 (antibody, human IgG1, V domains shown)
VH: B2 VH with D56G
VL: B2 VL
notes: Humanized antibody, variable domains fused with the constant region of human IgG1; also called 64G1VH1.M1_VL1.M1
B4: 100C4E7D11 chimeric (antibody, V domains shown)
VH: EVMLVESGGGLVKPGGSLKLSCAASGFTFSFYTMSWVRQTPEKRLEWVATISSGGGSTYYSDSVKGRFTISRDNAKNNLYLQMTSLRSEDTALYYCSRSLPVDYWGQGTTLTVSS
VL: QIVLTQSPAIMSASLGERVTMTCTASSSVSSTYLHWYQQKPGSSPKLWIYSTSNLASGVPARFSGSGSGTSYSLTISSMEAEDAATYYCHLYHHSPYTFGGGTKLEIK
notes: also called 100C4 Chimeric
B5: 64G1E9B4 chimeric (antibody, V domains shown)
VH: EVQLQQSGPELVKPGASVKISCKTSGYTFTEHVIHWVKQSHGKSLEWIGGFNPNHDGTIYNQIFRGKATLTVDKSSSTAYMELRSLTSEDSAVYFCTRAAKLLFAMDYWGQGTSVTVSS
VL: DIVMTQSHKFMSTSIGDRVSITCKASQHVSNAVVWYQQKPGQSPKLLIYSPSYRFTGVPDRFTGSGSGTDFTFTISSVQAEDLAVYYCQQHYSTPWTFGGGTKLEIK
notes: also called 64G1 Chimeric

Assays:
[1] = biological target: T1, human TIGIT over-expressed on cells; assay: cell-based or functional assay
[2] = biological target: T3, cynomolgus TIGIT over-expressed on CHO-K1 cells (cynomolgus, UniProt A0A7N9I9V4 89-312); assay: FACS, CHO-K1 cells over-expressing cynomolgus TIGIT
T3 construct: whole, on cells; also called CHO-K1/cynomolgus TIGIT cells
T3 sequence (A0A7N9I9V4 entry or part of it): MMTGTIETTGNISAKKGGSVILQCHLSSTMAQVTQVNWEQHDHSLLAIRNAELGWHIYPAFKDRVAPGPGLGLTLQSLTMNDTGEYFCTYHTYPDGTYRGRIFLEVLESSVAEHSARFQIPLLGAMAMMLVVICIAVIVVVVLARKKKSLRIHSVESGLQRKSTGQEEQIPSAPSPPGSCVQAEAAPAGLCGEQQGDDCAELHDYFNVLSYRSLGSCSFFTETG
Description: (§1) Binding affinities of the chimeric anti-human TIGIT monoclonal antibodies and the humanized anti-human TIGIT monoclonal antibodies to human or cynomolgus TIGIT over-expressed on CHO-K1 cells were determined using a fluorescence-activated cell sorting (FACS)-based assay. […] The mixture was equilibrated for 30 minutes at room temperature and washed three times with FACS buffer (PBS containing 1% BSA). iFluor labeled goat anti-mouse IgG as the secondary antibody was added and incubated at room temperature for 45 min. Finally, the cells were washed 3 time with PBS, and the signal was read by FACS BD Calibur. Data was analyzed with PRISM™ (GraphPad Software, San Diego, Calif.) using non-linear regression and EC₅₀ values were calculated.

[3] = biological target: T1, human TIGIT over-expressed on cells; assay: competition FACS, CHO cells expressing human TIGIT; competitor PVR recombinant protein
Description: (§2) To assess the competitive binding on human TIGIT between the chimeric anti-human TIGIT monoclonal antibodies or the humanized anti-human TIGIT monoclonal antibodies and PVR, the chimeric anti-human TIGIT monoclonal antibody or the humanized anti-human TIGIT monoclonal antibody samples were prepared (starting at 300 nM, ≤3-fold serial dilution with 10 concentrations). CHO cells expressing human TIGIT were dissociated from adherent culture flasks and mixed with varying concentrations of each chimeric anti-human TIGIT monoclonal antibody or the humanized anti-human TIGIT monoclonal antibody and 5 μg/ml […] fusion protein having a biotin label. The mixture was equilibrated for 30 minutes at room temperature and washed three times with FACS buffer (PBS containing 1% BSA). PE/Cy5 Streptavidin secondary antibody was then added to the mixtures and incubated for 15 minutes at room temperature. Subsequently, the cells were washed with FACS buffer and analyzed by flow cytometry. Data was analyzed with PRISM™ (GraphPad Software, San Diego, Calif.) using non-linear regression, and IC₅₀ values were calculated (FIG. 7 and Table 13).

[4] = biological target: T1, human TIGIT over-expressed on cells; assay: competition FACS, CHO cells expressing human TIGIT; competitor PVR recombinant protein (column headed EC50, text says IC50)
Description: as §2

[5] = biological target: T1, human TIGIT over-expressed on cells; assay: FACS, CHO-K1 cells over-expressing human TIGIT
Description: as §1

[6] = biological target: T2, Human TIGIT protein with HIS tag; assay: SPR Biacore T200; antibody Fc-captured, TIGIT-His analyte
Description: Binding kinetics of the chimeric anti-human TIGIT monoclonal antibodies and the humanized anti-human TIGIT monoclonal antibodies to human TIGIT were determined using a Surface Plasmon Resonance (SPR) biosensor, BIACORE® T200 (GE Healthcare). Different concentrations of the chimeric anti-human TIGIT monoclonal antibodies or humanized anti-human TIGIT monoclonal antibodies were prepared starting at 50 nM with a 3-fold serial dilution. Each chimeric anti-human TIGIT monoclonal antibody or each humanized anti-human TIGIT monoclonal antibody was immobilized on the sensor chip through the Fc capture method. Human TIGIT protein with a HIS tag was used as the analyte. The dissociation (kd) and association (kₐ) rate constants were obtained using the BIACORE® T200 evaluation software. The apparent equilibrium dissociation constants (KD) were calculated from the ratio of kd over kₐ.

| Binder | IL-2 secretion in T cell activation, Bottom (best-fit) [1] | IL-2 secretion in T cell activation, EC50 [1] [nM] | IL-2 secretion in T cell activation, Top (best-fit) [1] | Bottom (best-fit) [2] | EC50 [2] [nM] | Top (best-fit) [2] | Bottom (best-fit) [3] | Top (best-fit) [3] | IC50 [4] [nM] | Bottom (best-fit) [5] | EC50 [5] [nM] | Top (best-fit) [5] | Kd [6] [nM] | koff [6] [s⁻¹] | kon [6] [M⁻¹ s⁻¹] |
| --- | --- | --- | --- | --- | --- | --- | --- | --- | --- | --- | --- | --- | --- | --- | --- |
| B1 | 217 | 5.21 | 435 | 2830 | 2.85 | 29800 | 150 | 755 | 1.29 | 4110 | 1.15 | 25200 | 0.57 | 0.00035 | 610000 |
| B2 | 182 | 1.27 | 508 | 3010 | 1.65 | 24700 | 139 | 820 | 0.79 | 3190 | 0.89 | 22900 | 0.15 | 8.8e-05 | 590000 |
| B3 | 209 | 0.63 | 467 | 5530 | 0.91 | 29200 | 201 | 508 | 0.35 | 1530 | 0.43 | 24700 | 0.17 | 0.0001 | 630000 |
| B4 | 247 | 2.14 | 419 | 4880 | 1.03 | 23700 | 170 | 678 | 0.49 | 4160 | 0.58 | 25600 | 0.17 | 0.00016 | 910000 |
| B5 | 204 | 0.66 | 462 | 3920 | 1.33 | 25600 | 197 | 772 | 0.51 | 3600 | 0.47 | 23400 | 0.07 | 6.4e-05 | 910000 |
